This is an account of results in patent US20210063414A1, “METHODS FOR PREVENTING AND/OR TREATING BONE LOSS CONDITIONS BY MODULATING IRISIN” (Dana-Farber Cancer Institute, Inc., priority 2018, published 2021).

The series addresses integrin αV/β5 (Homo sapiens, UniProt P06756+P18084). As to the kind of experiment: Differential HDX/MS of irisin and integrin αV/β5. The series is classed as binding. As to conditions: 10 μM irisin, 30 μM integrin αV/β5. As for the experimental part:
Differential HDX-MS experiments were conducted as previously described with a few modifications (Chalmers et al. (2006) Anal. Chen. 78:1005-1014).
Protein samples were injected for inline pepsin digestion and the resulting peptides were identified using tandem MS (MS/MS) with an Orbitrap™ mass spectrometer (Fusion Lumos, ThermoFisher). Following digestion, peptides were desalted on a C8 trap column and separated on a 1 hour linear gradient of 5-40% B (A is 0.3% formic acid and B is 0.3% formic acid 95% CH3CN). Product ion spectra were acquired in data-dependent mode with a one second duty cycle such that the most abundant ions selected for the product ion analysis by higher-energy collisional dissociation between survey scan events occurring once per second. Following MS2 acquisition, the precursor ion was excluded for 16 seconds. […]
HDX-MS analysis: Apo proteins (irisin and integrin αV/β5) were analyzed at 10 μM each. […] The intensity weighted mean m/z centroid value of each peptide envelope was calculated and subsequently converted into a percentage of deuterium incorporation. […] Statistical significance for the differential HDX data was determined by an unpaired t-test for each time point, a procedure that was integrated into the HDX Workbench software (Pascal et al. (2012) J Am. Soc. Mass Spectrom. 23:1512-1521). […]

integrin αV/β5, sequence (P18084 24-719 limits assumed): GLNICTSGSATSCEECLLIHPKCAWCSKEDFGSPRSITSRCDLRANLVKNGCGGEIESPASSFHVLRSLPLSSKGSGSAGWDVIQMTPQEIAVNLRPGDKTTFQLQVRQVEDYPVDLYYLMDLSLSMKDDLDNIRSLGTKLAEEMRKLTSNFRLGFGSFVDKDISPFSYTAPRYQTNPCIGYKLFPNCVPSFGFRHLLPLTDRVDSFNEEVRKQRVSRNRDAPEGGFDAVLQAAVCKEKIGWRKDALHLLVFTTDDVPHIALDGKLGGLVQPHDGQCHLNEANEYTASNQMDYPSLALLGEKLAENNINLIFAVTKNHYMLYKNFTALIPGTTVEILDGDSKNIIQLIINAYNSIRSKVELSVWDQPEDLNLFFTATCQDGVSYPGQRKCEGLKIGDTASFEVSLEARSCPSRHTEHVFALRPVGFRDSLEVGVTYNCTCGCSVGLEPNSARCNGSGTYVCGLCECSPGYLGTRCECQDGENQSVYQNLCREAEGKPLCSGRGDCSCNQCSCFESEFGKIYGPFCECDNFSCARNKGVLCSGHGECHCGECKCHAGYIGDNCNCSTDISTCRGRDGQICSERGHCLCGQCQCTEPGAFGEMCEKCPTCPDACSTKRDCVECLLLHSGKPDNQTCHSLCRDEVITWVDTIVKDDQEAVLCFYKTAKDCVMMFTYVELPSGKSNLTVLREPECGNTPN
integrin αV/β5, sequence (P06756 31-889 limits assumed): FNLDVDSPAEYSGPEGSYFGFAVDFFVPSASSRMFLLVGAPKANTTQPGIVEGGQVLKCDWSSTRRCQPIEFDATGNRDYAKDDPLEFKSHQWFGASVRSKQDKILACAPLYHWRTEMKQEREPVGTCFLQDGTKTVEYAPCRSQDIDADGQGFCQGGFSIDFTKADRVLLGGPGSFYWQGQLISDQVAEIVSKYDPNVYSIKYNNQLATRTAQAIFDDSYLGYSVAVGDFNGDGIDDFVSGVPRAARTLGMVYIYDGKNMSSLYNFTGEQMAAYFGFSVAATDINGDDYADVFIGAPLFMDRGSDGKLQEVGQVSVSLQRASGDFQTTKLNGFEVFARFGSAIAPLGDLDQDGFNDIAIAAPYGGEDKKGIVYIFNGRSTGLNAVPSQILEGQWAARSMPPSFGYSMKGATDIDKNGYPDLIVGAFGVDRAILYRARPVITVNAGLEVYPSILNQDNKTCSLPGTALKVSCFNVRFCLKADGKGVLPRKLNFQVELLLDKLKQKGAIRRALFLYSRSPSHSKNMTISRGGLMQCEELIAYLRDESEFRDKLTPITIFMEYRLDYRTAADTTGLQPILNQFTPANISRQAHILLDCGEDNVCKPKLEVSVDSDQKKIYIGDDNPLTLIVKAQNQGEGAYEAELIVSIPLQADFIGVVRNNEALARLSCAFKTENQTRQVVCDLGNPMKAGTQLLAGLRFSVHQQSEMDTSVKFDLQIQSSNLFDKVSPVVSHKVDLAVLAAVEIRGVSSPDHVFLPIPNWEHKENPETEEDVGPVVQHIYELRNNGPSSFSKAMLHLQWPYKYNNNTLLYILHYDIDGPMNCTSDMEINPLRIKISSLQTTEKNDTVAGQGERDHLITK
integrin αV/β5, sequence (P06756 891-992 partner limits assumed): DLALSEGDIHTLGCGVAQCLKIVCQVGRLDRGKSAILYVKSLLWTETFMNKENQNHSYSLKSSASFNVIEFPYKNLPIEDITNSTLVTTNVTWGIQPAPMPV

B1: irisin: secreted cleaved form of FNDC5; recombinant human/mouse irisin with C-terminal his tag produced in HEK293 cells (protein)
chain: DSPSAPVNVTVRHLKANSAVVSWDVLEDEVVIGFAISQQKKDVRMLRFIQEVNTTTRSCALWDLEEDTEYIVHVQAISIQGQSPASEPVLFKTPREAEKMASKNKDEVTMKE
modifications: left off: small tags and cut ends
notes: secreted cleaved form of FNDC5; recombinant human/mouse irisin with C-terminal his tag produced in HEK293 cells
With B1, the “direct interaction with integrin αV/β5 (HDX/MS)” value is listed as “directly binds integrin αV/β5”.
